Source: patent US20090214574A1 (AFFIMED, published 2009)

Columns and labels:
NKp46-Fc = biological target: T1, NKp46-Fc (UniProt O76036 22-258, limits assumed); test: Western blot on NKp46-Fc
T1 construct: Negative control protein; also called NKp46-Fc control protein; not shown: Fc part, not described
Experimental: For further characterization all of the anti-CD16A scFv were tested for binding in Western Blot on recombinant CD16A-Fc and NKp46-Fc.
The proteins were transferred on a nitrocellulose membrane by electroblotting. After staining with Ponceau S, the membrane was cut into strips of 5 mm width. Each nitrocellulose strip was individually incubated with scFv (4 μg/ml) in PBS, 0.1% tween, 2% skimmed milk. Detection was carried out with the anti-Penta His HRP-conjugate (1 μg/mL) using diaminobenzidine (DAB) as a peroxidase substrate. […] As an additional positive control, a goat anti-human IgG HRP-conjugate (0.16 μg/mL) was used for detection of the Fc portion of the fusion proteins.

[1] = biological target: T2, human CD16A-Fc^48R/158V fusion protein (human, UniProt P08637 17-208, limits assumed); test: SPR, BIAcore 2000, CD16A-Fc immobilized on CM5, koff/kon
T2 construct: Secreted soluble fusion made in HEK-293 cells; also called CD16-Fc; CD16A Fc-fusion protein; not shown: Fc portion of human IgG1
Experimental: (§1) The affinity constants (KD values) of the scFv were determined by SPR using the BIAcore 2000 biosensor system (Amersham-Pharmacia). The CD16A-Fc fusion protein and BSA used as a negative control were immobilized on the carboxymethyldextran-coated sensor chip CM5 using conventional NHS/EDC chemistry for the amine coupling procedure (BIAcore). Purified scFvs were diluted in HBS-EP buffer (BIAcore, Uppsala, Sweden). Binding data was generated by passing varying concentrations of the scFv antibodies (100 nM, 200 nM, 400 nM, 800 nM and 1600 nM) over the immobilized antigen. […] All SPR measurements were performed at a constant flow rate of 20 μL/min in HBS-EP buffer at 25° C. Each injected sample (100 μl) was in contact with antigen for 5 minutes. The dissociation was followed for 30 minutes. After each cycle, the surface of the sensor chip was flushed with HBS-EP buffer. Signals from the control channel coated with BSA were automatically subtracted. Kinetic constants were calculated according to the 1/1 Langmuir binding model using the BIAevaluation version 3.0 software (BIAcore).

[2] = biological target: T2, human CD16A-Fc^48R/158V fusion protein; test: SPR, BIAcore 2000, CD16A-Fc immobilized on CM5, 1:1 Langmuir
Experimental: as §1

[3] = biological target: T3, commercially available recombinant CD16B (Allele NA-2; BSA free; RD Systems) (UniProt O75015 17-200, limits assumed); test: ELISA on recombinant CD16B coated at 80 nM; scFv detected with anti-c-Myc-HRP (10 µg/ml)
T3 construct: also called recombinant CD16B-Fc
Experimental: FIG. 3: ELISA on recombinant CD16A-Fc and CD16B. Recombinant CD16A-Fc and CD16B proteins were coated at 80 nM in 0.1 M NaHCO₃, pH 8.8. Wells were blocked with PBS, 2% skimmed milk. The binding of the scFv to the recombinant proteins and to gp34-Fc (negative control) was detected using an anti-c-Myc-HRP conjugate (10 μg/ml). […] Coated recombinant CD16B was directly detected by staining with an anti-His-HRP (1 μg/mL) and coating of the Fc-Fusion proteins was tested by an anti-human IgG-HRP conjugate (0.5 μg/mL). As HRP-substrate, 50 μL of TMB were used. After termination of the reaction with 50 μL 0.5 M H₂SO₄, absorbance was measured at 450 nm.
In order to generate further supporting data concerning the CD16A specificity of the scFvs, an ELISA was performed using the CD16A-Fc fusion protein (Example 1) and commercially available recombinant CD16B-Fc (Allele NA-2; BSA free; RD Systems). A gp34-Fc fusion protein was used as a negative control. The recombinant proteins were coated overnight at a concentration of 80 nM in 100 mM NaHCO₃ at pH 8.8.
Detection of scFv bound to the recombinant proteins was carried out by using an anti-c-myc-HRP conjugate (10 μg/ml). […] Binding to the recombinant CD16B was tested by directly staining with anti-His-HRP (1 μg/mL) and binding to the Fc-Fusion proteins was tested by an anti-human IgG-HRP conjugate (0.15 μg/mL).

[4] = biological target: T4, native CD16B on human polymorphonuclear cells (neutrophilic granulocytes) (human, UniProt O75015 17-200); test: flow cytometry on freshly isolated PMN; scFv, anti-(His)6 MAb, FITC goat anti-mouse IgG; MFI minus secondary reagents alone
T4 construct: whole, on cells; also called PMN; CD16B-positive granulocytes
Experimental: Polymorphonuclear cells (PMN) and natural killer (NK) cells were isolated from peripheral blood from a healthy donor and used for flow cytometric staining and analysis. […] All scFv were used at a concentration of 50 μg/mL and were detected with 10 μg/mL anti-(His)₆ followed by 15 μg/mL FITC-conjugated goat anti-mouse IgG. The mean fluorescence intensities obtained from flow cytometric analysis were corrected by subtracting the fluorescence values from cell stainings with the secondary reagents alone and were plotted in the diagram.
Enrichment of NK cells was performed by negative selection as described above.

[5] = biological target: T5, human CD16B (NA-2 allele) on stably transfected HEK-293 cells (293/CD16B) (human, UniProt O75015 17-200); test: flow cytometry on 293/CD16B cells; scFv, anti-hexa His MAb 13/45/31-2, FITC goat anti-mouse IgG; MFI minus secondary reagents alone
T5 construct: whole, on cells
Experimental: (§2) The mean fluorescence intensities obtained from flow cytometric analysis were corrected by subtracting the fluorescence values from cell stainings with the secondary reagents alone, and plotted in the diagram.
(§3) For flow cytometric analysis, the following cell lines were used: BW and BW/CD16A transfectants were cultured as described previously. […] The transient transfections were performed using the calcium phosphate method as described in Example 1 and were used for flow cytometric staining and analysis two days after transient transfection. Flow cytometric staining and analysis was performed as essentially described before.

[6] = biological target: T6, NKp46 extracellular domain fused to zeta chain, on transiently transfected HEK-293 cells (293/NKp46) (human, UniProt O76036 22-258; P20963 31-164); test: flow cytometry on 293/NKp46 cells; scFv, anti-hexa His MAb 13/45/31-2, FITC goat anti-mouse IgG; MFI minus secondary reagents alone
T6 construct: extracellular domain;domain: transmembrane and cytoplasmic domain; On the cell surface; also called NKp46-transfectants; pcDNA3-NKp46-zeta
Experimental: as §2, §3

[7] = biological target: T2, human CD16A-Fc^48R/158V fusion protein; test: SPR, kinetic and steady state analysis
Experimental: as §1

[8] = biological target: T2, human CD16A-Fc^48R/158V fusion protein; test: SPR, steady state analysis (column Keq)
Experimental: as §1

T1 sequence (O76036 22-258 limits assumed): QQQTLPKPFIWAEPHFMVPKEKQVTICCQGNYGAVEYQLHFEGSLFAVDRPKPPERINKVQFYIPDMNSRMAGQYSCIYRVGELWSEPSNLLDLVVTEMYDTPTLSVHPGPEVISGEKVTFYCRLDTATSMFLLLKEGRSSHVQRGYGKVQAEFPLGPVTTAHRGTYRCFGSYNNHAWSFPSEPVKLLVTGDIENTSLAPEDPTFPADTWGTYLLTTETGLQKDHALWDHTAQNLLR
T3 sequence (O75015 17-200 N65S limits assumed): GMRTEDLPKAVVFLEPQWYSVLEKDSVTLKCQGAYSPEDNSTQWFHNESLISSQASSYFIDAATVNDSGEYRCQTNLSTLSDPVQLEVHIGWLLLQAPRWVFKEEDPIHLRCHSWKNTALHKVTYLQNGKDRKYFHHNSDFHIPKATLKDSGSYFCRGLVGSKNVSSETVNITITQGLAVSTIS
T5 sequence (O75015 17-200 N65S): as the sequence (O75015 17-200 N65S limits assumed) above
T6 sequence (O76036 other isoform, or with tags, fused parts or gaps limits assumed): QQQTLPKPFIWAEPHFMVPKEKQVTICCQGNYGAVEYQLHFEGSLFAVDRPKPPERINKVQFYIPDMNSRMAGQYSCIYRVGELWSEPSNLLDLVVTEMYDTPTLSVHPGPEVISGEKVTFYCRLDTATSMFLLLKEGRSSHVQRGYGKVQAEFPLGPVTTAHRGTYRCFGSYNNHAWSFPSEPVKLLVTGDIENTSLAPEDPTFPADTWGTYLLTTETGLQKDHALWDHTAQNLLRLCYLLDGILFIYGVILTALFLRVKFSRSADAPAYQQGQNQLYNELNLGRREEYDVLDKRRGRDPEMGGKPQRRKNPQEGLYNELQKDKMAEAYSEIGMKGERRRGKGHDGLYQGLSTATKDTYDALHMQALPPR
T2 sequence (P08637 17-208 L66R/F176V limits assumed): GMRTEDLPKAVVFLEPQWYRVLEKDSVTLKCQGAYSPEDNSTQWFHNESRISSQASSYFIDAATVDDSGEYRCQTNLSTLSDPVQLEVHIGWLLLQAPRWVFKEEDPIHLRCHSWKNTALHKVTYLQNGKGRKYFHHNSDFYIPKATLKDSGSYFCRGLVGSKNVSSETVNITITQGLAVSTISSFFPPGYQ
T4 sequence (O75015 17-200): as the sequence (O75015 17-200 N65S limits assumed) above, with S49N counted along it

binding result (NKp46-Fc)	Kd [1] [nM]	koff [2] [s⁻¹]	kon [2] [M⁻¹ s⁻¹]	binding result [3]	binding result [4]	binding result [5]	binding result [6]	fold improvement of affinity over parental clone 50NI [7] [fold]	Kd [8] [nM]	Binder
no binding (tested: 4 µg/ml)	109	0.00557	50900	no binding (tested: not given)	no binding (tested: 50 µg/mL)	no binding (tested: 50 µg/mL)	no binding (tested: 50 µg/mL)			affinity matured anti-CD16A scFv 4-LS14 (scFv, IMAC-purified from pSKK2) scFv: EVQLVQSGAEVKKPGESLKVSCKASGYTFTSYYMHWVRQAPGQGLEWMGIINPSGGSTSYAQKFQGRVTMTRDTSTSTVYMELSSLRSEDTAVYYCARGSAYYYDFADYWGQGTLVTVSSGSASAPTLKLEEGEFSEARVSYELTQPPSVSVTPGQTATITCGANDIGKRNVHWYQQRPGQSPVLVIYQDNKRPSGIPERFSGSNSGNTATLTISGTQAMDEADYYCQVWDNYSVLFGGGTKLTVLGQPKAAPSVTLFPPSAAAGSEQKLISEEDLNSHHHHHH
no binding (tested: 4 µg/ml)	119	0.00652	54800	no binding (tested: not given)	no binding (tested: 50 µg/mL)	no binding (tested: 50 µg/mL)	no binding (tested: 50 µg/mL)	> 20	106	affinity matured anti-CD16A scFv 3-LB6 (scFv, IMAC-purified from pSKK2) scFv: EVQLVQSGAEVKKPGESLKVSCKASGYTFTSYYMHWVRQAPGQGLEWMGIINPSGGSTSYAQKFQGRVTMTRDTSTSTVYMELSSLRSEDTAVYYCARGSAYYYDFADYWGQGTLVTVSSGSASAPTLKLEEGEFSEARVQAVLTQPPSVSVAPGQTARIPCEGNNIGSKNVHWYRQKPGQVPVLVMYDDSDRPSGIPERFSGSNSGNTATLTISGTQAMDEADYYCQVWDNYSVLFGGGTKLTVLGQPKAAPSVTLFPPSAAAGSEQKLISEEDLNSHHHHHH
no binding (tested: 4 µg/ml)	138	0.00297	21600	no binding (tested: not given)	no binding (tested: 50 µg/mL)	no binding (tested: 50 µg/mL)	no binding (tested: 50 µg/mL)			affinity matured anti-CD16A scFv 3-LB3 (scFv, IMAC-purified from pSKK2) scFv: EVQLVQSGAEVKKPGESLKVSCKASGYTFTSYYMHWVRQAPGQGLEWMGIINPSGGSTSYAQKFQGRVTMTRDTSTSTVYMELSSLRSEDTAVYYCARGSAYYYDFADYWGQGTLVTVSSGSASAPTLKLEEGEFSEARVSYELTQPLSESVAQGQTARITCGGNNIESRNVHWYQQKPGQAPVLVIYRDNNRPSGIPERFSGSNSGNMATLTISRAQAGDAADYYCQVWDNYTVLFGGGTKLTVLGQPKAAPSVTLFPPSAAAGSEQKLISEEDLNSHHHHHH
no binding (tested: 4 µg/ml)	40.5	0.00297	73300	no binding (tested: not given)	no binding (tested: 50 µg/mL)	no binding (tested: 50 µg/mL)	no binding (tested: 50 µg/mL)			affinity matured anti-CD16A scFv 3-LB5 (scFv, IMAC-purified from pSKK2; oligomeric state not analysed) scFv: EVQLVQSGAEVKKPGESLKVSCKASGYTFTSYYMHWVRQAPGQGLEWMGIINPSGGSTSYAQKFQGRVTMTRDTSTSTVYMELSSLRSEDTAVYYCARGSAYYYDFADYWGQGTLVTVSSGSASAPTLKLEEGEFSEARVSYELTQPPSVAVAPGKTARITCGGNNIGSKNVHWYQQKPGQAPVLVIYRDSNRPSGIPERFSGSNSGNTATLTISRAQAGDEADFYCQVWDNYIVLFGGGTKLTVLGQPKAAPSVTLFPPSAAAGSEQKLISEEDLNSHHHHHH
no binding (tested: 4 µg/ml)	137	0.00401	29300	no binding (tested: not given)	no binding (tested: 50 µg/mL)	no binding (tested: 50 µg/mL)	no binding (tested: 50 µg/mL)			affinity matured anti-CD16A scFv 3-LS49 (scFv, IMAC-purified from pSKK2) scFv: EVQLVQSGAEVKKPGESLKVSCKASGYTFTSYYMHWVRQAPGQGLEWMGIINPSGGSTSYAQKFQGRVTMTRDTSTSTVYMELSSLRSEDTAVYYCARGSAYYYDFADYWGQGTLVTVSSGSASAPTLKLEEGEFSEARVQPVLTQPLSVSVAPGQTARITCGGNNIGSKNVHWYQQKPGQAPVLVIYRDSSRPSGIPERLSGSNSGDTATLTISRAQAGDEADYYCQVWDDYIVVFGGGTKLTVLGQPKAAPPVTLFPPSAAAGSEQKLISEEDLNSHHHHHH
